From the nanobody polyreactivity screen of Harvey et al. (2022) come the findings set out here.

The series in a line: yeast display, Sf9 membrane polyspecificity reagent, FACS + sequencing; frameworks hold sequencing errors. The essentials:
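Synthetic nanobody libraries on Saccharomyces cerevisiae BJ5465 were galactose-induced for 36–48 hours, stained 1 hour at 4 °C with 10% biotinylated, detergent-solubilized Sf9 membrane reagent and enriched on streptavidin microbeads. FACS then separated cells into low and high (top ~1%) gates by anti-HA (expression) and streptavidin (reagent binding) fluorescence. Genes were colony-PCR amplified, MiSeq 2 × 250 sequenced and CDR-length filtered. A clone's polyreactivity label is that of its gate of origin.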
As to “QVQLVESGGGLVQAGGSLRLSCAASGRTYSNAMGWYRQAPGKERELVAAITWSGGRTYYADSVKGRFTISRDNAKNTVYLQMNSLKPEDTAVYYCAADSIWWPLWFDYWGQGTQVTVSS”, the “polyreactivity (PSR sort gate)” value is listed as “high polyreactivity”.

In the case of “QVKLVESGAGLVQAGGSLRLSCAASGIIFAQYTMGWYRQAPGKERELVAAINRNGGSTYYADSVKGRFTISRDNAKNTVYLQMNSLKPEDTAVYYCNAEALGFRYDYWGQGTQVTVSS”, the “polyreactivity (PSR sort gate)” value is given as “low polyreactivity”.

With “QVQLVESGGGLVQAGGTLRLSCGASGLIFTSNAMGWYRQAPGKESELVAAISNTGGSTYYADSVKGRFTISRDNSKNTVYLQMNSLKPEDTAVYYCAVDPAAGLTNVFYLKYFGYDFWGQGTQVTVSS”, the “polyreactivity (PSR sort gate)” value is given as “low polyreactivity”.

Turning to “QFQLVESGGGLVQAGGSLRLSCAASGRIFRYYSMGCYIQSPGKERELVAAITRGGSTNYADSVKGRFTISGDNANNNVYLQMNSLKPEDSAVYYCAVRGCYTWPTYNYWGHGTQVTVSS”, the “polyreactivity (PSR sort gate)” value was “high polyreactivity”.

In the case of “QVQLVESGGGLVQAGGSLRISCAASGSTFWGYAMGWYRQAPGKERELVATINQSAGSTYYADSVKGRFTISRDNAKNTVYLQMNSLKPEDTAVYYCAAEARVQFSYDYWGQGTQVTVSS”, the “polyreactivity (PSR sort gate)” value is “low polyreactivity”.

For “QVQLVESGGGLVQAGGSLRLSCAPSGSTFFWYSMGWYRQAPGKERELVARISRRSGSTYYADSVKGRFTISRDNAKNTVYLQMNSLIPEDTAVYYCNARAVGAPGSVRYDYWGQGTQVTVSS”, the “polyreactivity (PSR sort gate)” value is recorded as “low polyreactivity”.

As to “QVQLVESGGGLVQAGGSLRLSCAASGSIFEFNTMGWYRQAPGKERELVAAISSADTTNYADSVKGRFTISRDNAKNTVYLQMNSLKPEDTAVYYCNKELHLSATLRVLGFDYWGQGTQVTVSS”, the “polyreactivity (PSR sort gate)” value is listed as “low polyreactivity”.

Turning to “QDQLVESGGGLVQAGGSLRISIAASARTFRDYVMGWSRQAPGKERELVAAISTRGASTYYADSVKGRFTISRDNAKNTVYLQMNTLKPEDTADYYCAARSTRRGNEYDYWGQGTQVTVSS”, the “polyreactivity (PSR sort gate)” value is on record as “high polyreactivity”.

“QVQLVESGGGLVQAGGSLRLSCAASGSIFYSNVMGWYRQAPGKESELVAAITRGGGTNYADSVKGRFTISRDNAKNTVYLQMNSLKPEDTAVYYCNRDPQKYRWIPRFDYWGQGTQVTVSS”: the “polyreactivity (PSR sort gate)” value is reported as “low polyreactivity”.

“QVQLVESGGGLVQAGGSLRLSCAASGRIFFGNTMGWSRQAPGKERELVAVIDRSGGTTYYADSVKGRFTSSRDNAKNTVYLQMNSLKPEDTAVYYCAAIRRQKGLWDYYYWGQGTQVTVST”: the “polyreactivity (PSR sort gate)” value was “low polyreactivity”.

With “QVQLVESGGGLVQAGGSLRLICAASGRYYAMGWYRQAPGKERELVAAISSGGSTNYADSVKGRFTISRDNAKNTVYLQMNSLKPEDTAVYYCAALIRQLRYYLYYYWGQGTQVTVSS”, the “polyreactivity (PSR sort gate)” value is listed as “high polyreactivity”.

Consider “QVQLVESGGGLVQAGGSLRLSCAASGRIFRHKAMGWYRQAPGKETELVAAITSRGGTYYADSVKGRFTISRDNAKNTVYLQMNSLKPEDTAFYFCNADQALYSSGNKYDYWGQGTQVTVSS”, for which the “polyreactivity (PSR sort gate)” value is “low polyreactivity”.

Regarding “QVQLVESGGGLVQAGGSLRLSCAASGSIFWANAMGWYRPAPGKERELVAAINFRATITYYPASVKGRFTISRDNAKNTVYLQMNSRKPEDTAVYYCAKAQAQRYSFYYWGQGTQVTVSS”, the “polyreactivity (PSR sort gate)” value was “high polyreactivity”.

On to “QVQLVESGGGLVQAGGSLRLSCAASGRTFGFNVMGWYRQAPGKERELVAAISWSGGSTYYADSVKGRFTISRDNAKNTVYLQMNSLKPEDTAVYYCNNRYVHRYGYWGQGTQVTVSS”, for which the “polyreactivity (PSR sort gate)” value is reported as “low polyreactivity”.

Regarding “QVQLVDSGGGLVQAGGSLRLSCAASGRTFSYYGMGWYRQAPGQERELVACIRRRGGSTYYADSVKGRFTISRDNAKNNVSLQMNSLNPEDTAVYYCTAATYGDYSNLGYGYWGQGTQVTVSS”, the “polyreactivity (PSR sort gate)” value is given as “high polyreactivity”.

Regarding “QVQLVESGGGLVQAGGSLRLSCAASGSTFGRYAMGWYRQAPGKERELVAAITSDTGNTNYADSVKGRFTISRDNAKNTVYLQMNSLKPEDTAVYYCAAATFWVLWGHVIGNYDSWGQGTQVTVSS”, the “polyreactivity (PSR sort gate)” value is “low polyreactivity”.

In the case of “QVQLVESGGGLDQAGGSLRLSCAASGITFGFNAMGWYRQAPGIERELVAAITYRGGSTYYADSVKGRFTISGDNAKNTVYLQMNSLKPEDTAVYYCAADIGRHTDNYDPRYDYWGQGTQVTVSS”, the “polyreactivity (PSR sort gate)” value is “low polyreactivity”.

With “QVQLVESGGGLVQAGGSLRLSCAASGFTFPNYDMGWYRQAPGKERELVAAITSGGGRTNYADSVKGRFTISRDNAKNTVYFQMNSLKPEDTSVYFCAKTRVRGSEFGYWGQGTQLTVSS”, the “polyreactivity (PSR sort gate)” value is “low polyreactivity”.

Take “QVQLVESGGGLVQAGGSLRLSCAASGIIFSFYAMGWYRQAPWKERELVAAISSGGNTNYADSVNGRFTISRDNAKNTVYLQMNSLKPEDTAVYYCAAGYYIWSTYDYWGQGTQVTVSS”: the “polyreactivity (PSR sort gate)” value is “low polyreactivity”.

Regarding “QVQLVESGGGLDQAGGSLRLSCAASGRTFDFYAMGWYRQAPGKEMELVAAITFSTGSTTYADSVKGRFTISRDNAKNTVYLQMNSLKPEDTAVYYCAADGDGWWWSYVDRYDYWGQGTQVTVSS”, the “polyreactivity (PSR sort gate)” value is recorded as “low polyreactivity”.

As for “QVQLVESGGGLVQAGGSLRLSCPASGLTFQRYAMGWYRQAPGKERELVAAITVGGGRTYYADSVKGRFTISRDNAKNTVYLQMNSLKPEDTAVYYCAADSHASTYDYWGQGTQVTVSS”, the “polyreactivity (PSR sort gate)” value was “low polyreactivity”.

On to “QVKLVESGGGLVQAGGSLRLSCDASGSTFIANTMGWYRQAPGKERELVAAITDSGGSTYYADSVKGRFTISRDNAKNTVYLQMNSLKPEDTAVYYCNADYVYVFIRAWSYDYWGQGTQVTVSS”, for which the “polyreactivity (PSR sort gate)” value was “low polyreactivity”.

Turning to “QVQLVESGGGLVQAGGSLRLSCAASGFTFPRYAMGWYRQAPGKERELVAAITSGDRTYYADSVKGRFTISRDNAKNTVYLQMNSLKPEDTAVYYCARVPDTEGEYWGQGTQVTVSS”, the “polyreactivity (PSR sort gate)” value is “high polyreactivity”.

Regarding “QDQLVESGGGLVQAGGSLRLSCAASGSTFRHYAMGWYRQAPGKERELVAVISWGGTSTYYADSVKGRFTISRDNAKNTVYLQMNSLKPEDTAVYYCNKAYFPIFKGYEMYYWGQGTQVTVSS”, the “polyreactivity (PSR sort gate)” value was “low polyreactivity”.

With “QVQLVESGGGLVQAGGSLRLSCAASGGIFYTYAMGWYRQAPGKEREFVAAISRRGSSTYYADSVKGRFTISRDNEKNTVYLQMNSLKPEDTAVYYCAKSYAPYSYANNDYWGQGTQVTVSS”, the “polyreactivity (PSR sort gate)” value is “low polyreactivity”.

In the case of “QVQLVESGGGLVQAGGSLRLSCAASGSTFRYNTMGWYRQAPGKERELVAAISSGGGTHFADSVKGRFTISRDNAKNTVYLQMNSLKPEDTAVYYCAAQSRYRYQFYSGLEYDYWGQGTQVTVSS”, the “polyreactivity (PSR sort gate)” value was “low polyreactivity”.

On to “QVQLVESGGGLGQAGGSLRLSCAASGSIIKPYAMGWYRQAPGKERELVAAIRSSGGRTNYADSVKGRFTISRDNAKNSVYFQMNSLKPEDTGVYYCAAGYVSYWYYRYDYWGQGTQVTVSS”, for which the “polyreactivity (PSR sort gate)” value is listed as “high polyreactivity”.

On to “QVQLQESGGGLVQAGGSLRLTCAASGYISYLQSMGLYRQAPVKERELVAGITLGTTTYNADSVKGRFTISPDNVQNTVYLQMNSLKPEYTAVYYCAVAVGHYPEFWYWGQGTQVTMSS”, for which the “polyreactivity (PSR sort gate)” value is reported as “high polyreactivity”.

Consider “QVQLVESGGGLVQAGGSLRLSCAASGSIFRFYAMGWYRQAPGKERELVADISWRGGSTYYADSVKGRFTISRDNAKNTVYLQMNSLKPEDTAVSYCAAGYYRASTTVTHGGIEGDSWGQGTQVTVSS”, for which the “polyreactivity (PSR sort gate)” value is recorded as “high polyreactivity”.

On to “QVQLVESGGGLVQAGGSLRLSCAASGYTFIINAMGWYRQAPGKERELVASISGGGTYYADSVKGRFTISRDNAKNTVYLEMNSLKREDTAVYYCNATRRRKYYKYGGDYWGQGTQVTVSS”, for which the “polyreactivity (PSR sort gate)” value is “high polyreactivity”.
